Experimental data taken from patent US20100048468A1 (Amgen, published 2010).
Numbering of substitutions follows the chain as printed. Non-standard residues stand in square brackets, D forms with d. Groups on a side chain read outwards from the residue. Primed or numbered codes have the meaning given here. No end group written: not given here. maleimide = maleimide group of a PEG-maleimide, coupled to the cysteine thiol (thioether); mPEG40k‑branched = branched 40 kDa PEG (2 × 20 kDa) maleimide, attached to the Cys thiol; mPEG‑maleimide = 30 kD linear mPEG-maleimide attached to the Cys; mPEG 20 kDa = 20 kD mPEG-maleimide, thioether-linked to the Cys; branched PEG 40 kDa = branched polyethylene glycol of 40 kDa; Aib′ = alpha aminobutyric acid (source's wording)

T1: mouse GLP-1 receptor (mouse, UniProt O35659 22-463)
T1 sequence (looked up): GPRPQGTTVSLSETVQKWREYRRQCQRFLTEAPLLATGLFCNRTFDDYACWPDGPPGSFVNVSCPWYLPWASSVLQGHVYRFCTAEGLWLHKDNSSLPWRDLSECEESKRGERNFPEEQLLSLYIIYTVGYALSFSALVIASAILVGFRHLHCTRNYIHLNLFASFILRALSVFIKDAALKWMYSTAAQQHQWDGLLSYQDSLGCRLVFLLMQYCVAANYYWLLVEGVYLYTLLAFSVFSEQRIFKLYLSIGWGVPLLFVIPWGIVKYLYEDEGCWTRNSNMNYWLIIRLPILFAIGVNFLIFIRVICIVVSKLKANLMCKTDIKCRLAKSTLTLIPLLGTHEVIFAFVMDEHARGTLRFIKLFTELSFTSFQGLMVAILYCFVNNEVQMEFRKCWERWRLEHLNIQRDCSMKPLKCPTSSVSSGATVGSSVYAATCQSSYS

T2: mouse GLP-1 receptor (mouse), O35659
T2 chain: T1 sequence (looked up)

B1: cgGLP-14 (SEQ ID NO: 7 + 20k PEG dimer) (peptide)
peptide: HGEGTFTSDVSSYLEGCAAKEFIAWLVKGRGSSGAPPPS
modifications: not fully specified (residue 17); also: dimer: two peptides on one forked PEG-(maleimide)2
B2: cgGLP-15 (SEQ ID NO: 8 + 20k PEG dimer) (peptide)
peptide: B1 peptide with V27K, K28N, R30G, G31P
modifications: not fully specified (residue 17); also: dimer: two peptides on one forked PEG-(maleimide)2
B3: cgGLP-3 (SEQ ID NO: 6 + 8k PEG dumbbell) (peptide)
peptide: HGEGTFTSDVSSYLEGCAAKEFIAWLVKGRG
modifications: not fully specified (residue 17); also: dimer: two peptides on one mal-PEG-mal, one at each end

molecular target: T1, mouse GLP-1 receptor; assay: cell-based or functional assay

In order of rising EC50 mouse:
1. HGEGTFTSDVSSYLE[Aib′]QAAKEFIAWLVKGRGC(mPEG‑maleimide)SG-NH2 (also: PEG on Cys32: 30k, but the text says branched 40 kDa) [cgGLP-28 (SEQ ID NO: 22 + 30k PEG)]  0.8 nM
2. HGEGTFTSDVSSYLE[Aib′]QAAKEFIAWLVKGRGC(mPEG40k‑branched)SG-NH2 [cgGLP-29 (SEQ ID NO: 22 + 40k branched PEG)]  1 nM
3. H[Aib′]EGTFTSDVSSYLE[Aib′]QAAKEFIAWLVKGRGC(mPEG 20 kDa)SG [cgGLP-20 (SEQ ID NO: 25 + 20k mPEG)]  1.5 nM

molecular target: T3, human GLP-1 receptor (human, UniProt P43220 24-463); assay: cell-based or functional assay

In order of rising EC50 human:
1. H[Aib′]EGTFTSDVSSYLE[Aib′]QAAKEFIAWLVKGRGC(mPEG 20 kDa)SG [cgGLP-20 (SEQ ID NO: 25 + 20k mPEG)]  0.099 nM
2. HGEGTFTSDVSSYLE[Aib′]QAAKEFIAWLVKGRGC(mPEG‑maleimide)SG-NH2 (also: PEG on Cys32: 30k, but the text says branched 40 kDa) [cgGLP-28 (SEQ ID NO: 22 + 30k PEG)]  0.1 nM
3. HGEGTFTSDVSSYLE[Aib′]QAAKEFIAWLVKGRGC(mPEG40k‑branched)SG-NH2 [cgGLP-29 (SEQ ID NO: 22 + 40k branched PEG)]  0.15 nM

molecular target: T3, human GLP-1 receptor; assay: 125I-GLP-1 displacement, membranes of CHOK1 cells expressing human GLP-1 receptor
Method: (§1) Membrane Preparation. […] Cells were sedimented at 1500 rpm for 10 minutes. The resulting pellets were homogenized in 15 mls of ice cold sucrose buffer (25 mM Tris-HCl, 0.32 M Sucrose, 0.25 g/L, sodium azide, pH 7.4) with a motorized, glass fitted, Teflon homogenizer. The homogenate was centrifuged at 48,000×g at 4° C. for 10 minutes, resuspended in 25 ml assay buffer (50 mM Tris-HCl, 5 mM MgCl₂, 10 mg/ml protease-free BSA, 0.1 mg/ml STI, and 0.1 mg/ml Pefabloc, pH 7.4) with a Tissue-Tearor (Biospec Products), then centrifuged again at 48,000×g for 10 minutes. The pellets were homogenized for a third time in 15 ml assay buffer using the Tissue-Tearor and again centrifuged at 48,000×g for 10 minutes. The resulting pellet was resuspended in assay buffer at a wet weight concentration of 4 mg/ml.
(§2) Ligand Binding Assay. Binding assays were performed in 96-well U-bottom plates. […] The reaction was terminated by rapid filtration through Unfilter-96 GF/C glass fiber filter plates (FilterMate 196 Packard Harvester, PerkinElmer, Shelton, Conn.) pre-soaked in 0.5% polyethylenimine, followed by three washes with 300 μl of cold 50 mM Tris-HCl, pH 7.4. Bound radioactivity was determined using a TopCount microplate scintillation and luminescence counter (Packard Instrument Company, PerkinElmer, Shelton, Conn.). Nonlinear regression analyses of resulting concentration curves were performed using GraphPad Prism (GraphPad Software, Inc., San Diego, Calif.).
In vitro experiments were conducted to determine receptor binding and potency for a class of molecules having a glycine substitution at position 8, a cysteine substitution at position 22 and a variable C-terminus.

In order of rising IC50:
1. HGEGTFTSDVSSYLEGCAAKEFIAWLVKGRG (Unconjugated peptide) [HGEGTFTSDVSSYLEGCAAKEFIAWLVKGRG (SEQ ID NO: 6)]  70 nM
2. B3  84 nM
3. HGEGTFTSDVSSYLEGCAAKEFIAWLVKGRGSSGAPPPS (Unconjugated peptide) [HGEGTFTSDVSSYLEGCAAKEFIAWLVKGRGSSGAPPPS (SEQ ID NO: 7)]  100 nM
4. HGEGTFTSDVSSYLEGCAAKEFIAWLKNGGPSSGAPPPS (Unconjugated peptide) [HGEGTFTSDVSSYLEGCAAKEFIAWLKNGGPSSGAPPPS (SEQ ID NO: 8)]  100 nM
5. B1  300 nM
6. B2  300 nM
7. HGEGTFTSDVSSYLEGC(PEG 20 kDa)AAKEFIAWLVKGRGSSGAPPPS [cgGLP-12 (SEQ ID NO: 7 + 20k PEG monomer)]  1000 nM

molecular target: T1, mouse GLP-1 receptor; assay: cell-based or functional assay; remark: another data set of the same source

In order of rising EC50 mouse:
1. HGEGTFTSDVSSYLEGCAAKEFIAWLKNGGPSSGAPPPS (Unconjugated peptide) [HGEGTFTSDVSSYLEGCAAKEFIAWLKNGGPSSGAPPPS (SEQ ID NO: 8)]  0.3 nM
2. HGEGTFTSDVSSYLEGCAAKEFIAWLVKGRGSSGAPPPS (Unconjugated peptide) [HGEGTFTSDVSSYLEGCAAKEFIAWLVKGRGSSGAPPPS (SEQ ID NO: 7)]  0.8 nM
3. HGEGTFTSDVSSYLEGCAAKEFIAWLVKGRG (Unconjugated peptide) [HGEGTFTSDVSSYLEGCAAKEFIAWLVKGRG (SEQ ID NO: 6)]  1.4 nM
4. B2  2 nM
5. HGEGTFTSDVSSYLEGC(PEG 30 kDa)AAKEFIAWLVKGRG [cgGLP-7 (SEQ ID NO: 6 + 30k PEG)]  2.9 nM
6. HGEGTFTSDVSSYLEGC(branched PEG 40 kDa)AAKEFIAWLVKGRG [cgGLP-2 (SEQ ID NO: 6 + 40k branched PEG)]  3.6 nM
7. B1  4 nM
8. B3  5.7 nM
9. HGEGTFTSDVSSYLEGC(PEG 20 kDa)AAKEFIAWLVKGRGSSGAPPPS [cgGLP-12 (SEQ ID NO: 7 + 20k PEG monomer)]  8 nM
10. HGEGTFTSDVSSYLEGC([maleimide-mPEG 20 kDa])AAKEFIAWLVKGRG [cgGLP-1 (SEQ ID NO: 6 + 20K PEG)]  245 nM

molecular target: T3, human GLP-1 receptor; assay: cell-based or functional assay; remark: another data set of the same source

In order of rising EC50 human:
1. HGEGTFTSDVSSYLEGCAAKEFIAWLKNGGPSSGAPPPS (Unconjugated peptide) [HGEGTFTSDVSSYLEGCAAKEFIAWLKNGGPSSGAPPPS (SEQ ID NO: 8)]  0.07 nM
2. HGEGTFTSDVSSYLEGCAAKEFIAWLVKGRGSSGAPPPS (Unconjugated peptide) [HGEGTFTSDVSSYLEGCAAKEFIAWLVKGRGSSGAPPPS (SEQ ID NO: 7)]  0.1 nM
3. B3  0.2 nM
4. HGEGTFTSDVSSYLEGCAAKEFIAWLVKGRG (Unconjugated peptide) [HGEGTFTSDVSSYLEGCAAKEFIAWLVKGRG (SEQ ID NO: 6)]  0.24 nM
5. B1  0.6 nM
6. B2  0.8 nM
7. HGEGTFTSDVSSYLEGC(PEG 20 kDa)AAKEFIAWLVKGRGSSGAPPPS [cgGLP-12 (SEQ ID NO: 7 + 20k PEG monomer)]  1 nM

Molecular target: T2, mouse GLP-1 receptor (mouse), O35659
Assay: cell-based or functional assay

With HGEGTFTSDVSSYLEGCAAKEFIAWLVKGRG (modifications not checked) [cgGLP-9 (SEQ ID NO: 6 + 20k PEG dimer)] the EC50 mouse was 9 nM.

molecular target: T3, human GLP-1 receptor; assay: 125I-GLP-1 displacement, membranes of CHOK1 cells expressing human GLP-1 receptor; remark: another data set of the same source
Method: as §1
as §2, with “Calif.). […]” for “Calif.).”

In order of rising IC50:
1. H[Aib′]EGTFTSDVSSYLE[Aib′]QAAKEFIAWLVKGRGC(mPEG 20 kDa)SG [cgGLP-20 (SEQ ID NO: 25 + 20k mPEG)]  30 nM
2. HGEGTFTSDVSSYLE[Aib′]QAAKEFIAWLVKGRGC(mPEG‑maleimide)SG-NH2 (also: PEG on Cys32: 30k, but the text says branched 40 kDa) [cgGLP-28 (SEQ ID NO: 22 + 30k PEG)]  71 nM
3. HGEGTFTSDVSSYLE[Aib′]QAAKEFIAWLVKGRGC(mPEG40k‑branched)SG-NH2 [cgGLP-29 (SEQ ID NO: 22 + 40k branched PEG)]  800 nM

molecular target: T3, human GLP-1 receptor; assay: cell-based or functional assay; remark: another data set of the same source
Target sequence in this assay (P43220 24-463): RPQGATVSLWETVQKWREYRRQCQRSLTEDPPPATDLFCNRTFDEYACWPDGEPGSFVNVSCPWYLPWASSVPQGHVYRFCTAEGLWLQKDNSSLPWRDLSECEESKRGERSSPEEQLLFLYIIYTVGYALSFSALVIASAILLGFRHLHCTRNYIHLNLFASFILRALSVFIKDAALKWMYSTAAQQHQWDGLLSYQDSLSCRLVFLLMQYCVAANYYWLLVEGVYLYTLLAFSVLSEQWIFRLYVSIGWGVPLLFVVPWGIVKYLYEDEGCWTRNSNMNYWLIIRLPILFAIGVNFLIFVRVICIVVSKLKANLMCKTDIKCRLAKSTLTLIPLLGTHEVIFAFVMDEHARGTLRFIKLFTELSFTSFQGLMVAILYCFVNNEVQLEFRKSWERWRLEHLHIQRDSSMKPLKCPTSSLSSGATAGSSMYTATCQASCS

In order of falling EC50 human:
1. HGEGTFTSDVSSYLEGC([maleimide-mPEG 20 kDa])AAKEFIAWLVKGRG [cgGLP-1 (SEQ ID NO: 6 + 20K PEG)]  12 nM
2. HGEGTFTSDVSSYLEGCAAKEFIAWLVKGRG (modifications not checked) [cgGLP-9 (SEQ ID NO: 6 + 20k PEG dimer)]  1 nM
3. HGEGTFTSDVSSYLEGC(branched PEG 40 kDa)AAKEFIAWLVKGRG [cgGLP-2 (SEQ ID NO: 6 + 40k branched PEG)]  0.7 nM
4. HGEGTFTSDVSSYLEGC(PEG 30 kDa)AAKEFIAWLVKGRG [cgGLP-7 (SEQ ID NO: 6 + 30k PEG)]  0.2 nM
